Consider three sequences from article PMC9890229.

Data set [1] addresses T1, Hfq;Crc (Pseudomonas aeruginosa;Pseudomonas aeruginosa) (UniProt Q9HUM0+Q51380). Description: cryo-EM. Conditions: EMSA: 20 mM Tris-HCl pH 8.0, 40 mM NaCl, 10 mM KCl, 1 mM MgCl2; 200 nM RNA; 15 min at 37 C; 4% PAA gel in 1x TBE at 4 C, SYBR gold. (In general: A gel shift assay detects complexes by their altered migration in electrophoresis.)
Data set [2] addresses T1, Hfq;Crc (Pseudomonas aeruginosa;Pseudomonas aeruginosa). Description: EMSA. Conditions: EMSA: 20 mM Tris-HCl pH 8.0, 40 mM NaCl, 10 mM KCl, 1 mM MgCl2; 200 nM RNA; 15 min at 37 C; 4% PAA gel in 1x TBE at 4 C, SYBR gold.

On to “GGCUGAGGAGGCUUUACGACGGGCCCCGGGGCGCAUGCCGACGACGCGGCGGCCCGACAAUAAAAACAAAUCAUGGAGUAAGAGAAUGAUCAGAAUGGCGCUCAAGCCACUGGUAGCG [estA118]”, for which the binding result in data set [1] and in data set [2] was “binds” each time.
Regarding “GGGCCUUUUUUCGUCCCGAAAAAAUAACAACAAGAGGUGAUAUCCAUGCGUCACGGCGAUAUUUCCAGCAGCAACGACACCGUCGGAGUGGCGGUGGUCAACUAC [amiE105]”, the binding result in data set [1] and in data set [2] was “binds” each time.
Consider “GGAACGCAAACGUUUGCGUCUGGAUAAUCUCCUGGAAAAGCCUCAAUACAACGAUAAGAAAAGCUGGAGGAUACACCAUGAAGCGGGUCGCUUCCCGGCGCCUGUUGGCU [rbsB110]”, for which the binding result in data set [1] and in data set [2] was “binds” throughout.
